One assay addresses CD40L (UniProt P29965). Nature of the assay: cell-based or functional assay.
Another assay has as its target CD40 (UniProt P25942). Nature of the assay: cell-based or functional assay.
Sequence of UniProt P25942 (P25942 21-277 limits assumed): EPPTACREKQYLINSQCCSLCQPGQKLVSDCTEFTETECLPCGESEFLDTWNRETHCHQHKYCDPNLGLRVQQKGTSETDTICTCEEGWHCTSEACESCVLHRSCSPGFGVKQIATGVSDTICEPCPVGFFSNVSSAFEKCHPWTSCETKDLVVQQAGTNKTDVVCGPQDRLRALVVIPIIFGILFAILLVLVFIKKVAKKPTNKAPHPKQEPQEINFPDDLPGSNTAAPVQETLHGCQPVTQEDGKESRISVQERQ

Sequence of UniProt P29965 (P29965 whole entry): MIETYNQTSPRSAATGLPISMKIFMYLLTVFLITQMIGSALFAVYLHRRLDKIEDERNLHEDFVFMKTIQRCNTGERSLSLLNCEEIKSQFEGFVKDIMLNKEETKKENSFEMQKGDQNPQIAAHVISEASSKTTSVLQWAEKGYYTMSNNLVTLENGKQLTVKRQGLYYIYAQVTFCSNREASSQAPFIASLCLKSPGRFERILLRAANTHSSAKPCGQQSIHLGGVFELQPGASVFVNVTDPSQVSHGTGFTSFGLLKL

For “anti-CD40L clone 40804 (R&D Systems) (antibody)”, in the assay with CD40L, the IFN-γ ELISpots upon recall, T-lymphocytes primed and restimulated by doubly-loaded dendritic cells amounted to 68 % decrease.
In the assay with CD40, “antiCD40 clone 82111 (R&D Systems) (antibody)” returned an IFN-γ ELISpots upon restimulation of T-cells primed by doubly-loaded DCs of 8 % increase; an IFN-γ ELISpots upon restimulation of T-cells primed by lysate-loaded DCs of 51 % increase; an IFN-γ ELISpots upon restimulation of T-cells primed by mRNA-loaded DCs of 86 % increase; an IFN-γ ELISpots upon restimulation, self-antigen controls (fold increase) of 6.

These data come from patent US20140286975A1.
